Measured values as given in article PMC4938795.

Molecular target: RD1-MART1^HIGH Y93Fα, yeast displayed (human)
Assay: flow cytometry on cells

fold weaker binding than RD1-MART1^HIGH: 10 fold
Substance: MART1/HLA-A2 monomer (from UniProt P61769 21-119) (peptide-MHC)
